{"source": "paper PMC6822988", "about": "“Native adiponectin in serum binds to mammalian cells expressing T-cadherin, but not AdipoRs or calreticulin” (eLife, 2019)", "key": {"[1]": {"biological_target": "adiponectin (HMW) (Homo sapiens) (UniProt Q15848)", "sequence (Q15848 19-244)": "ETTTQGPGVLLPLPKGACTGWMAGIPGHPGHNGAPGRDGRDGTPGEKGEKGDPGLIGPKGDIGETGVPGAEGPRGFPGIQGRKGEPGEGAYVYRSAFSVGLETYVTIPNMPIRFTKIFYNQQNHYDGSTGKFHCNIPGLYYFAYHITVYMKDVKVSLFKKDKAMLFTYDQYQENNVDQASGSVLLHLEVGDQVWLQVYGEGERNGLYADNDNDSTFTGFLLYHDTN", "conditions": "cited from earlier work"}, "[2]": {"biological_target": "the molecule itself", "assay": "native gel or EMSA; native-PAGE of purified or recombinant adiponectin, 50 ng adiponectin, Western blot"}, "[3]": {"biological_target": "the molecule itself", "assay": "native gel or EMSA; native-PAGE of mouse serum, 50 ng adiponectin, Western blot"}}, "data": [{"molecule": "T-cadherin (from UniProt P55290)", "values": [{"measurement": "Kd", "setting": "[1]", "result": 1, "unit": "nM"}]}, {"molecule": "Full-length mammalian recombinant mouse adiponectin (ligand, UniProt Q60994 18-247, looked up, adiponectin, mouse, full-length recombinant, produced in HEK293 cells; contains less 6-mer and HMW multimer than serum adiponectin; the secreted product probably lacks the signal peptide; also called recombinant adiponectin; full-length recombinant adiponectin produced in HEK293 cells; source: bought: BioVendor (RD272023100), produced in HEK293 cells) EDDVTTTEELAPALVPPPKGTCAGWMAGIPGHPGHNGTPGRDGRDGTPGEKGEKGDAGLLGPKGETGDVGMTGAEGPRGFPGTPGRKGEPGEAAYVYRSAFSVGLETRVTVPNVPIRFTKIFYNQQNHYDGSTGKFYCNIPGLYYFSYHITVYMKDVKVSLFKKDKAVLFTYDQYQEKNVDQASGSVLLHLEVGDQVWLQVYGDGDHNGLYADNVNDSTFTGFLLYHDTN", "values": [{"measurement": "binding result", "setting": "[2]", "result": "binds"}]}, {"molecule": "native mouse adiponectin in mouse serum (ligand, UniProt Q60994 18-247, looked up, adiponectin, mouse, circulating protein of serum; multimers (6-mer and HMW multimer) seen by native-PAGE; Used both as whole serum and as adiponectin purified from serum; Mixture of multimers; also called mouse serum adiponectin; native adiponectin; source: endogenous, serum of C57BL6J mice, used as serum without processing; also purified from mouse serum (Fukuda et al., 2017)) EDDVTTTEELAPALVPPPKGTCAGWMAGIPGHPGHNGTPGRDGRDGTPGEKGEKGDAGLLGPKGETGDVGMTGAEGPRGFPGTPGRKGEPGEAAYVYRSAFSVGLETRVTVPNVPIRFTKIFYNQQNHYDGSTGKFYCNIPGLYYFSYHITVYMKDVKVSLFKKDKAVLFTYDQYQEKNVDQASGSVLLHLEVGDQVWLQVYGDGDHNGLYADNVNDSTFTGFLLYHDTN", "values": [{"measurement": "binding result", "setting": "[3]", "result": "binds"}]}]}
